A word on the Kd: it is the concentration at which binding is half-saturated. As usually defined, the stoichiometry N is the number of molecules, sites or subunits per partner or assembly.

Drawing on article PMC2796168, this text covers Kd and stoichiometry N for 2 substances.

The target in assay [1] is CCL3 (Homo sapiens) (UniProt P10147). Conditions: cited from earlier work.
Assay [2] deals with CCL4 (Homo sapiens) (UniProt P13236). The conditions noted are these: cited from earlier work.
Assay [3] deals with CCL18 (Homo sapiens) (UniProt P55774). Conditions: cited from earlier work.
Assay [4] has as its target non-glycosylated Evasin-1 (Rhipicephalus sanguineus) (UniProt P0C8E7). Nature of the assay: crystal structure; complex of non-glycosylated Evasin-1 and ΔAla1-CCL3 (A10T), formed overnight at 4°C at a molar ratio of 1:2.5, captured on Ni-NTA; crystals in 24% PEG 3350, 0.2 M ammonium sulphate, 0.1 M HEPES pH 8.1; 1.9 Å.

Evasin-1, sequence (P0C8E7 21-114): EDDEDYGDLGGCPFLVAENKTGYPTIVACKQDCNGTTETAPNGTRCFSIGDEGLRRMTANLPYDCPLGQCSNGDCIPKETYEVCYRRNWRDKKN
CCL18 (Homo sapiens), sequence (P55774 24-89): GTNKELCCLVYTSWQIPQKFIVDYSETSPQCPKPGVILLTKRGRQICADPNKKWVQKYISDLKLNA
CCL4 (Homo sapiens), sequence (P13236 24-92): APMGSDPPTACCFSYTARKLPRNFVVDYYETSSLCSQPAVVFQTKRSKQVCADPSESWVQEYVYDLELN
non-glycosylated Evasin-1 (Rhipicephalus sanguineus), sequence (P0C8E7 21-114): as the sequence (P0C8E7 21-114) above
CCL3 (Homo sapiens), sequence (P10147 24-92): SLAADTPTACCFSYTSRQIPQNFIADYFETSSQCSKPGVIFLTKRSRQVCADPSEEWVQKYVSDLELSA

For the substance Evasin-1 (from UniProt P0C8E7), the Kd was 0.16 nM in assay [1], 0.81 nM in assay [2] and 3.2 nM in assay [3].
Consider ΔAla1-CCL3 (A10T) (ligand), for which the stoichiometry N in assay [4] turned out to be 1.
